Assay: soluble on expression in E. coli; label from the status in PepcDB or PDB records

Sequence	soluble on expression in E. coli
METDPDYSMVLLTENFPPYNMAINGKNFAQEDNIDGIAVDIVREMFKRAGIKYSLTLRFPWDRIYKLALEKPGYGVFVTARLAEREDKFKWVGPIGPDDWVLLAKGDSPITLGSLDEAKKYRIGAYKGDAIAEFLGKNGFEADLALRDQENAQKLVKGQIDLWASGDPAGRYLAKQEGVTGLKTVLRFNSDQLYLALNRETPDEVVQKLQAALDGMRKEGFVEDILNSYLLEHHHHHH	soluble
QTSGFSVTSGPMDVDVVTSIPFAMVDEINESSPAAEGGLQLGDQVLKFGNVEGGDNLLQRLAAEAQSNQGQAVSVQVMRQ	soluble
MTTVSEQANFTFSPEEVARFERDGYIGPVKIFEPEEMTRRWNIIRRQLLDRSLAIYPDSNGKANISNYDRHLDIDLLAEHIMRPEIVDRVGSLIGRNLLCWRSEFFPKYQGDEGTDWHQAATFAHATGKPQIIWPSDEGRPAFIGTITVWTAFTHSTEQNGCLQLMPGTHTSMNYDESKGMDYDADAINQREKDGIKRGFFGYDYRSLQKDPDWKPDESQAYPMVLKPGEAVIFWSNTMHASLPHTGSKTDYRMGFAARYVPTQVQVYPGTENLTEYGDGINLEKYGAVLTSGVDEYGHNRIARTSQRGYEFVPRQIPS	soluble
MSLSLPLFYAPDIEQSDRLPDDEAGHILRVLRMQAGDRLRLTDGRGSFFDAVIETADRKSCYVSVCGQESWQKPWRDRITIAIAPTKQSERMEWMLEKLVEIGVDEVVFIESEHSERRRIKAERLERIAISAMKQSLKASFPVIRVNIPIQTVIADTPKAAVRLIAYVDEAVRAEITQGRGYPSDFYHVGQDVLILIGPEGDFSPSEVESALLAGFAPVSLGESRLRTETAGLVACQWIHTLQACYRIGEGHHHHHH	soluble
MSLDMKEWEIFYNKIMEDFGFDKDKDVESAVILNNILENANTIPVDKLKDIIEGREVFIFGAGPSIKKHINILKELREINYKNPIIVADGACKAFLEENIIPDIIVSDLDGDLEALFECNRKGSIIVVHAHGDNIEKIKKYVPKLKNVVGSCQIPNYKELNLRNVINFGGFTDGDRCCFLAYHFKAKKLILGGMDFGIYITKYSRPNIKEDIAIGDEIKIKKLEYAKTLINYLKDKIEIEFLKEGHHHHHH	soluble
MAHHHHHHMHYTGVGIEDVKVRFNEKMRLSASLQRRKSEEVEWSLFWEALNKGDGKMISEALSGASVSGATQQIGMAEACAVLLKGAGKEWHTRIVDDLPFSTVTRCSLLHAALAEKRPDVAAEMLSHARVTRSDLSSLWPLMAKCTWEEVLRMISACPKNAVPYNQALPFILKQGCSLQTLSEHLEHARVLGDADVVAPLLAYAVEMEDWPYVERCVGHLVDIGKITPSAREAFGHLCKLHGPKRVCHRLMEHHVELSSMTIEDLESLRF	not soluble
MRTHDDTWDIKTSVGATAVMVAAARAVETDRPDPLIRDPYARLLVTNAGAGAIWEAMLDPTLVAKAAAIDAETAAIVAYLRSYQAVRTNFFDTYFASAVAAGIRQVVILASGLDSRAYRLDWPAGTIVYEIDQPKVLSYKSTTLAENGVTPSAGRREVPADLRQDWPAALRDAGFDPTARTAWLAEGLLMYLPAEAQDRLFTQVGAVSVAGSRIAAETAPVHGEERRAEMRARFKKVADVLGIEQTIDVQELVYHDQDRASVADWLTDHGWRARSQRAPDEMRRVGRWVEGVPMADDPTAFAEFVTAERL	soluble
DRRFQETLDKIRKEEGYDFAAIAFYESNKPSSPIKWHYVSGNKNNRFKLIILRKGRGLAGTVMKTGKRMVIANVGLALGPEEKIDYPILLSESLTAVLAVPLWYKNQVYGVLLFGQRDGRPLPKIFDNDDIQ	not soluble
AAGAAPVDISTLPRVKVDLVKPPFVHAHDQVAKTGPRVVEFTMTIEEKKLVIDREGTEIHAMTFNGSVPGPLMVVHENDYVELRLINPDTNTLLHNIDFHAATGALGGGALTQVNPGEETTLRFKATKPGVFVYHCAPEGMVPWHVTSGMNGAIMVLPRDGLKDEKGQPLTYDKIYYVGEQDFYVPKDEAGNYKKYETPGEAYEDAVKAMRTLTPTHIVFNGAVGALTGDHALTAAVGERVLVVHSQANRDTRPHLEGGHGDYVWATGKFRNPPDLDQETWLIPGGTAGAAFYTFRQPGVYAYVNHNLIEAFELGAAGHFKVTGEWNDDLMTSVVKPASM	soluble
MCELDILHDSLYQFCPELHLKRLNSLTLACHALLDCKTLTLTELGRNLPTKARTKHNIKRIDRLLGNRHLHKERLAVYRWHASFICSGNTMPIVLVDWSDIREQKRLMVLRASVALHGRSVTLYEKAFPLSEQFQRKLMTNFLEHHHHHH	not soluble
